Laboratory results from paper PMC9801508 (2022).
Like-named read-outs stand apart in the source and are kept apart here. One block for each binder: values may come before it.

B5: BCL11A extended zinc finger domain (exZnF23) (domain or fragment)
chain: PPVKSKSCEFCGKTFKFQSNLVVHRRSHTGEKPYKCNLCDHACTQASKLKRHMKTHMHKSSPMTVKSDDGLSTASSPEPGTSDLVGSASSALKSVVAKFKSENDPNLIPENGD

Assays:
[1] = molecular target: B5; test: MST
[2] = molecular target: T1, BCL11A ZnF23 zinc finger domain; test: MST
T1 chain: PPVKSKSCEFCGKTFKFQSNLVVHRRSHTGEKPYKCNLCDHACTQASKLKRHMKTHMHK

[3] = molecular target: B5; test: MST
[4] = molecular target: B5
[5] = molecular target: Q100L
[6] = molecular target: A97V
[7] = molecular target: W108R
[8] = molecular target: V102D
[9] = molecular target: L81F

B2: Nanobody 2D9 (2D9_V102G) (VHH)
VHH: QVQLVESGGGLVQAGGSLRLSCAASGSIFVNNAMGWYRQAPGKERELVAAISASGGSTYYADSVKGRFTISRDNAKNTVYLQMNSLKPEDTAVYYCAADQDGYPYEYWGQGTQVTVSS
Kd [3]: 320 nM
Kd [4]: 343 nM

B4: Nanobody 2D9_W108L (VHH)
VHH: QVQLVESGGGLVQAGGSLRLSCAASGSIFVNNAMGWYRQAPGKERELVAAISASGGSTYYADSVKGRFTISRDNAKNTVYLQMNSLKPEDTAVYYCAADQDVYPYEYLGQGTQVTVSS
Kd [4]: 23.4 nM

Binder: B5
Kd [5]: 224 nM
Kd [6]: 75.2 nM
Kd [7]: 56.5 nM
Kd [8]: 331 nM
Kd [9]: 1460 nM

The next lines start with the values.

Kd [1]: 1260 nM
Kd [2]: 32900 nM
B1: Nanobody wt2D9 (initial hit) (VHH)
VHH: QVQLVESGGGLVQAGGSLRLSCAASGSIFVNNAMGWYRQAPGKERELVAAISASGGSTYYADSVKGRFTISRDNAKNTVYLQMNSLKPEDTAVYYCAADQDVYPYEYWGQGTQVTVSS

Kd [3]: 674 nM
B3: ZF5.3-2D9 (cell-permeant nanobody) (other)
chain: QVQLVESGGGLVQAGGSLRLSCAASGSIFVNNAMGWYRQAPGKERELVAAISASGGSTYYADSVKGRFTISRDNAKNTVYLQMNSLKPEDTAVYYCAADQDGYPYEYWGQGTQVTVSS
